120 sequences from the supplement of paper PMC10126150 can be followed below.

± gives the standard deviation of the averaged measurements.

The series has as its system ATP. Kind of series: switch fluorescence ratio, 500 uM ATP over buffer (Cy3 cluster intensity, sum of 5 cycles each) (fold (ratio)); higher = stronger signal-on switching upon ATP binding; sequences stand for … in TCGTCGGCAGCGTCAGATGTGTATAAGAGACAGTTTTTTTTTTTTTTTTTTTTTTTTT…TC. The note with it: aptamer strand: ATP DNA aptamer (quencher-CACCTGGGGGAGTATTGCGGAGGAAGG + anchor), 100 nM annealed; ATP concentration: 500 uM. In outline: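 Imaging in selection buffer was followed by imaging after 15 min with 500 uM ATP at 22 °C, for Cy3-labelled switching-strand clusters annealed to 100 nM quencher-labelled ATP aptamer on a modified Illumina MiSeq flow-cell. Five of these buffer/ATP cycles ran, separated by NaOH stripping and re-annealing. The fluorescence ratio per cluster is summed target-cycle over summed buffer-cycle Cy3 intensity, averaged per switch-domain sequence; clusters outside 100-1000 RFU were removed.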
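Note: ATP exposure 15 min at 22 °C before imaging.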

Consider GGGCGAGTAT, for which the switch fluorescence ratio worked out at 1.016 ± 0.0029. Then GGGCGATGCA, with 1.02 ± 0.028; and GGGCGCCATA, with 0.948 ± 0.015; and GGGCGGAGCG, with 0.999 ± 0.036. The same measure for GGGCGGGATT: 1 ± 0.059; for GGGCGGGCAG: 0.997 ± 0.026; for GGGCGGGCGC: 1.06 ± 0.027.

GGGCGTTATG: the switch fluorescence ratio came out at 1.0238 ± 0.00033.

In the case of GGGCTAAAGG, the switch fluorescence ratio came out at 1.04 ± 0.03. Consider GGGCTAAATC, for which the switch fluorescence ratio turned out to be 1.01 ± 0.06.

In the case of GGGCTAACCT, the switch fluorescence ratio stood at 1.32 ± 0.043. Then GGGCTAATAA, with 1.02 ± 0.039. Then GGGCTAATGT, with 0.988 ± 0.047; and GGGCTACTTG, with 0.9881 ± 0.0021; and GGGCTAGCCA, with 0.979 ± 0.011. The same measure for GGGCTATGTC: 1.01 ± 0.038. As to GGGCTATTTA, the switch fluorescence ratio worked out at 1 ± 0.011. The same measure for GGGCTCTAAA: 1 ± 0.018; for GGGCTGCGGA: 0.976 ± 0.051; for GGGCTGGACG: 1 ± 0.043.

For the sequence GGGCTGGATT, the switch fluorescence ratio is 1.01 ± 0.036. The same measure for GGGCTGGGGA: 1.01 ± 0.033; for GGGCTGGGGG: 1.01 ± 0.057; for GGGCTGGGGT: 0.997 ± 0.038.

As for GGGCTGTTTG, the switch fluorescence ratio was determined as 0.95379 ± 2.9e-05. Then GGGCTTAGTG, with 0.993 ± 0.0066. The same measure for GGGCTTCCGT: 1.089 ± 0.0068; for GGGCTTGGCG: 1.0275 ± 0.00013; for GGGCTTGTGT: 0.993 ± 0.032. As for GGGCTTTGGC, the switch fluorescence ratio turned out to be 1 ± 0.025. Then GGGCTTTGTG, with 1 ± 0.01; and GGGGAAAAGT, with 1.01 ± 0.029; and GGGGAAAGTT, with 0.988 ± 0.043.

Turning to GGGGAACAGT, the switch fluorescence ratio stood at 0.979 ± 0.043.

On to GGGGAAGGAA, for which the switch fluorescence ratio was determined as 0.998 ± 0.027. As for GGGGAAGGAG, the switch fluorescence ratio stood at 0.977 ± 0.029.

On to GGGGAAGGGT, for which the switch fluorescence ratio was found to be 1.08 ± 0.23. For GGGGAAGTAT, the switch fluorescence ratio was 0.985 ± 0.014.

On to GGGGAATAGT, for which the switch fluorescence ratio was 1.26 ± 0.32. Then GGGGAATCCT, with 1.036 ± 0.0077. The same measure for GGGGAATCGT: 0.948 ± 0.027; for GGGGACACAG: 0.979 ± 0.015; for GGGGACCAAC: 1.03 ± 0.021. The same measure for GGGGACCATT: 1.01 ± 0.035; for GGGGACCTAG: 1.01 ± 0.015.

Take GGGGACGATA: the switch fluorescence ratio was determined as 1 ± 0.053.

With GGGGACGTCG, the switch fluorescence ratio amounted to 0.9972 ± 0.0087. GGGGACTCTT: the switch fluorescence ratio was determined as 0.977 ± 0.023.

For the sequence GGGGAGAGAA, the switch fluorescence ratio was 0.9855 ± 0.0071. GGGGAGAGAT: the switch fluorescence ratio is 0.999 ± 0.064. Then GGGGAGAGGC, with 1.08 ± 0.11. The same measure for GGGGAGAGGT: 1 ± 0.067; for GGGGAGTGCT: 0.9872 ± 0.004; for GGGGAGTGGG: 0.989 ± 0.051. The same measure for GGGGATAGCG: 1 ± 0.018; for GGGGATATCG: 1.03 ± 0.024. For GGGGATGTCT, the switch fluorescence ratio was 1.03 ± 0.03. The same measure for GGGGATTCAT: 0.986 ± 0.012; for GGGGATTGAT: 1.02 ± 0.039. The same measure for GGGGCAATAT: 3.69 ± 1.9; for GGGGCAATGT: 1.22 ± 0.05. For GGGGCAGCAG, the switch fluorescence ratio was found to be 1.02 ± 0.031. The same measure for GGGGCAGGGA: 0.98 ± 0.052. On to GGGGCATGTA, for which the switch fluorescence ratio is 1 ± 0.019.

With GGGGCATTTG, the switch fluorescence ratio is 0.9834 ± 0.0011. Then GGGGCCACGA, with 1.01 ± 0.014. The same measure for GGGGCCACTG: 1.02 ± 0.023; for GGGGCCAGGG: 1.04 ± 0.054. The same measure for GGGGCCCTTG: 0.97602 ± 9.7e-05; for GGGGCCGTCA: 0.987 ± 0.031; for GGGGCGAACG: 0.977 ± 0.04.

With GGGGCGAGGT, the switch fluorescence ratio amounted to 0.9974 ± 0.0041. Consider GGGGCGCCTC, for which the switch fluorescence ratio was found to be 0.992 ± 0.03. Then GGGGCGGACT, with 0.952 ± 0.04.

Consider GGGGCGGATG, for which the switch fluorescence ratio is 0.968 ± 0.013. The same measure for GGGGCGGCTA: 0.984 ± 0.029; for GGGGCGGGA: 1.08 ± 0.016; for GGGGCTAGTT: 0.963 ± 0.02. Then GGGGCTATAT, with 1.39 ± 0.62. For GGGGCTGTGG, the switch fluorescence ratio turned out to be 0.9933 ± 0.0087. The same measure for GGGGCTTGCA: 1.02 ± 0.019; for GGGGCTTTTT: 1 ± 0.036. For GGGGGAACTA, the switch fluorescence ratio stood at 0.989 ± 0.019. Then GGGGGAACTT, with 0.977 ± 0.032; and GGGGGAAGAC, with 1.04 ± 0.053. Turning to GGGGGAAGCT, the switch fluorescence ratio stood at 1.03 ± 0.05. The same measure for GGGGGAAGGT: 0.982 ± 0.032; for GGGGGAAGTC: 1.01 ± 0.034.

Regarding GGGGGAATAA, the switch fluorescence ratio is 1.54 ± 0.73.

For GGGGGAATAG, the switch fluorescence ratio stood at 1.05 ± 0.046. Take GGGGGAATGG: the switch fluorescence ratio was 1.11 ± 0.17.

On to GGGGGAATGT, for which the switch fluorescence ratio stood at 0.983 ± 0.026. The same measure for GGGGGAATTG: 1.02 ± 0.075.

With GGGGGAATTT, the switch fluorescence ratio is 0.993 ± 0.028. Then GGGGGACCGA, with 1.02 ± 0.023. With GGGGGACGCT, the switch fluorescence ratio is 0.972 ± 0.039. Then GGGGGACTTC, with 1.005 ± 0.01; and GGGGGAGAGA, with 1.03 ± 0.064. The same measure for GGGGGAGGAA: 0.978 ± 0.026. Then GGGGGAGGCA, with 0.966 ± 0.032; and GGGGGAGTGA, with 0.972 ± 0.029; and GGGGGAGTTC, with 1.02 ± 0.014. On to GGGGGATACG, for which the switch fluorescence ratio was determined as 0.997 ± 0.033. The same measure for GGGGGATATA: 1.01 ± 0.021; for GGGGGATCGG: 1.01 ± 0.022; for GGGGGATGCG: 1 ± 0.048.

Turning to GGGGGATGGA, the switch fluorescence ratio was 1.0016 ± 0.0002.

For the sequence GGGGGATTAA, the switch fluorescence ratio came to 1 ± 0.017. Then GGGGGCACAG, with 0.992 ± 0.012; and GGGGGCAGAA, with 0.983 ± 0.018. The same measure for GGGGGCATAA: 1.03 ± 0.076.

Take GGGGGCATGG: the switch fluorescence ratio worked out at 1 ± 0.02. The same measure for GGGGGCATTG: 0.9933 ± 0.0084. The same measure for GGGGGCCAGG: 1.02 ± 0.073.

Regarding GGGGGCGGCT, the switch fluorescence ratio is 1.03 ± 0.056. For the sequence GGGGGCGGTG, the switch fluorescence ratio came out at 1 ± 0.038. The same measure for GGGGGCTATA: 1.001 ± 0.0094; for GGGGGCTCAG: 0.9659 ± 0.0052. Then GGGGGCTTAT, with 1.01 ± 0.017. Then GGGGGGAACG, with 0.971 ± 0.024.
